The values that follow come from patent US20030008334A1 (published 2003).

Data set [1] concerns the target MBP-afadin-PDZ (MBP-fusion protein of the PDZ domain of afadin) (UniProt O35889). The experiment in a line: affinity chromatography on MBP-afadin-PDZ amylose beads, eluate on SDS-PAGE.
Data set [2] deals with the molecule itself. The data set can be described thus: immunofluorescence microscopy of co-cultured nectin-1α-L and nectin-2α-L cells. As for the experimental part: Chemical cross-linking was done according to the method described in references (Blood 92: 4602-4611, 1998; J. Biol. Chem., 275: 613-618, 2000). Immunoprecipitation was performed according to the method described in references (J. Cell Biol., 145: 539-549, 1999; J. Biol. Chem., 275: 613-618, 2000). Immunofluorescence microscopy of cultured cells was done according to the method described in references (J. Cell Biol., 139: 517-528, J. Cell Biol., 145: 539-549, 1999; J. Biol. Chem., 275: 613-618, 2000). Protein concentrations were determined with bovine serum albumin as a control, according to the method described in a reference (Anal. Biochem., 72: 248-254, 1976). SDS-PAGE was done as described (Nature, 227: 680-685, 1970).
When nectin-1α-L cells were co-cultured with nectin-2α-L cells, nectin-1α and nectin-2α were localized in the cell-cell contact sites of the respective L cells (FIG. 5, A1-A3). However, neither nectin-1α or nectin-2α was detected in the contact sites of the two types of the L cells. In contrast, when nectin-3α-L cells were co-cultured with nectin-1α-L cells, nectin-3α and nectin-1α coexisted in the cell-cell contact site of the two types of the L cells (FIG. 5, B1-B3). The same result was obtained in co-culture of nectin-3α-L cells and nectin-2α-L cells (FIG. 5, C1-C3).

Turning to “GST-nectin-3α-CP (GST-fusion protein of the cytoplasmic region of nectin-3α) (from UniProt Q9JLB9 433-549)”, in data set [1], the stoichiometry of binding (nectin-3α:afadin ratio) was found to be 1.

B1: Full-length human nectin-1α expressed on L cells (nectin-1α-L cells) (receptor, UniProt Q15223 31-517, looked up)
chain: QVVQVNDSMYGFIGTDVVLHCSFANPLPSVKITQVTWQKSTNGSKQNVAIYNPSMGVSVLAPYRERVEFLRPSFTDGTIRLSRLELEDEGVYICEFATFPTGNRESQLNLTVMAKPTNWIEGTQAVLRAKKGQDDKVLVATCTSANGKPPSVVSWETRLKGEAEYQEIRNPNGTVTVISRYRLVPSREAHQQSLACIVNYHMDRFKESLTLNVQYEPEVTIEGFDGNWYLQRMDVKLTCKADANPPATEYHWTTLNGSLPKGVEAQNRTLFFKGPINYSLAGTYICEATNPIGTRSGQVEVNITEFPYTPSPPEHGRRAGPVPTAIIGGVAGSILLVLIVVGGIVVALRRRRHTFKGDYSTKKHVYGNGYSKAGIPQHHPPMAQNLQYPDDSDDEKKAGPLGGSSYEEEEEEEEGGGGGERKVGGPHPKYDEDAKRPYFTVDEAEARQDGYGDRTLGYQYDPEQLDLAENMVSQNDGSFISKKEWYV
notes: whole, on cells
On to B1, for which the binding result in data set [2] was “binds”.
